Patent US20110182926A1, “[…]” (priority 2008, published 2011)
Each block holds one molecule with its values, some of them ahead of it.

What was measured:
HLA-A*0201 [1] = target: T1, HLA-A*0201 (Homo sapiens, UniProt P04439, D140Y/D185E/D98H/E176V/E277Q/G131W/G231S/I119V/I121R/I166T/I218V/L300P/L318F/N151K/N90K/P208A/P217A/Q86G/Q94H/R138H/R169H/T345S); experiment: iTopia Epitope Discovery System binding affinity; conditions: hTERT analogs; FIG. 8
Description: (§1) Candidate epitopes and analogs are analyzed for the ability to bind to HLA-A*0201in-vitro using iTopia™ Epitope Discovery System (http://www.immunomics.com). This assay provides a method to determine the binding affinity and stability of a test peptide to any of several Class I HLA molecules, using fluorescent-labeled antibody that specifically recognizes HLA only when peptide is bound in the MHC-I groove.
as §1, with “HLA-A*0201 in-vitro” for “HLA-A*0201in-vitro”

HHD mice = experiment: Immunogenicity of additional CEA peptides in HHD mice (Example 9, ICS for IFNγ); format: in vivo; conditions: for fold more immunogenic than the natural peptide: HHD mice, ICS IFNγ; for fold more immunogenic than the natural peptide / immunogenicity (immune response against the natural target epitope): FIG. 7; for immunogenicity (immune response against the natural target epitope): 6 HHD mice, 100 μg peptide s.c., two injections, ICS IFNγ three weeks later
HLA-A*0201 [2] = target: T1, HLA-A*0201; experiment: In vitro cellular binding assay of CEA peptides on TAP-deficient T2 cells (FACS); conditions: 50 μM peptide, 18 hours at 37° C., FIG. 3
Description: To determine the binding ability of EI Suite-selected wild type peptides and analogs, an in vitro cellular binding assay was performed using the TAP-deficient cell line T2. T2 cells are HLA-A*0201 positive, MHC class II negative and TAP deficient, meaning that they lack a functional transporter associated with antigen presentation, so that they accumulate empty unstable class I molecules.
T2 cells were incubated with 50 μM peptide in serum-free RPMI 1640 supplemented with 5 μg/mL human β2m (Fluka) for 18 hours at 37° C. HLA-A*0201 expression was then measured by flow cytometry using the anti-HLA-A2.1 monoclonal antibody (mAb) BB7.2 followed by incubation with fluorescein isothiocyanate (FITC)-conjugated F(ab′)2 goat antimouse Ig (Biosource). The results are expressed as fluorescence index (FI) defined as a ratio (median channel of fluorescence) between the sample and a control without any peptide. An increase over the control of at least […] (FI>2) was arbitrarily chosen as the cutoff point.

HLA-A*0201 [3] = target: T1, HLA-A*0201; experiment: HLA-A*0201/peptide complex stability on T2 cells over time (FACS); format: binding; conditions: 50 μM peptide, 0-8 hours, FIG. 4
Description: To assess the HLA-A*0201/peptide complex stability, T2 cells (10^6/mL) were incubated overnight with 50 μM of each peptide in serum-free RPMI 1640 supplemented with 100 ng/mL human β2m at 37° C. Cells were then washed 4 times to remove free peptides, incubated for 1 hour with 10 ng/mL Brefeldin A (Sigma-Aldrich) to block cell surface expression of newly synthesized HLA-A*0201 molecules, washed, and incubated at 37° C. for 0, 2, 4, 6, or 8 hours. Subsequently, cells were stained with anti-HLA-A2.1 mAb BB7.2. For each time point, peptide-induced HLA-A*0201 expression was calculated as mean fluorescence value of peptide incubated T2 cells/mean fluorescence value T2 cells in the absence of the peptide. Dissociation complex 50 (DC50) was defined as the time required for the loss of 50% of the HLA-A*0201/peptide complexes stabilized at t=0.
Binding stability of the peptide-MHC complex was also evaluated over time. The CAP-1 peptide was used as positive control.

HLA-A*0201 on T2 cells [4] = target: T2, HLA-A*0201 on T2 cells (human); experiment: T2 cells, 50 uM peptide, surface HLA-A2 by FACS with BB7.2
T2 construct: Empty class I molecule on T2 cells; also called HLA-A2.1; A2.1

[5] = target: T3, HLA-A*0201 (iTopia Epitope Discovery System) (human); experiment: iTopia Epitope Discovery System binding assay
T3 construct: Commercial in vitro assay; also called Class I HLA molecule
Text: This assay provides a method to determine the binding affinity and stability of a test peptide to any of several Class I HLA molecules, using fluorescent-labeled antibody that specifically recognizes HLA only when peptide is bound in the MHC-I groove.

HLA-A*0201 on T2 cells [6] = target: T2, HLA-A*0201 on T2 cells; experiment: assay not named there (T2 cell binding per paragraph 90)
Description: T2 cells were incubated with 50 μM peptide in serum-free RPMI 1640 supplemented with 5 μg/mL human β2m (Fluka) for 18 hours at 37° C. […] The results are expressed as fluorescence index (FI) defined as a ratio (median channel of fluorescence) between the sample and a control without any peptide. An increase over the control of at least 65% (FI>2) was arbitrarily chosen as the cutoff point.

Molecule: 540.V9: hTERT position 540 9-mer V9 analog of ILAKFLHWL, SEQ ID NO 15 (ILAKFLHWV)
binding affinity to HLA-A*0201 compared to the corresponding wild type peptide (HLA-A*0201 [1]): increase in binding affinity

Molecule: 540.V10: hTERT position 540 10-mer V10 analog of ILAKFLHWLM, SEQ ID NO 17 (ILAKFLHWLV)
binding affinity to HLA-A*0201 compared to the corresponding wild type peptide (HLA-A*0201 [1]): increase in binding affinity

Molecule: ALVGIMIGV [CEA687L2]
fold more immunogenic than the natural peptide (HHD mice): about 3.4 fold | mice responded to the treatment (HHD mice; groups of 6 HHD mice): 100%

Molecule: ATVGIMIGV [CEA687]
immunogenicity (immune response against the natural target epitope) (HHD mice): significantly immunogenic | mice responding to the vaccination (HHD mice; groups of 6 HHD mice): 4 out of 6

Molecule: GLNRTTVTTV (Anchor-modified analog) [307V10]
binding to HLA-A*0201 compared to wild-type counterpart (HLA-A*0201 [2]): marked increase of binding

Molecule: GLSAGATVGV (Anchor-modified analog) [682V10]
binding to HLA-A*0201 compared to wild-type counterpart (HLA-A*0201 [2]): marked increase of binding | stability of peptide-MHC complex compared to wild-type counterpart (HLA-A*0201 [3]): improved stability

Molecule: IMIGVLVGV [CEA691]
immunogenicity (immune response against the natural target epitope) (HHD mice): immunogenic

Molecule: RLTVTTITV (Anchor-modified analog) [CEA310L2]
immunogenicity (immune response against the natural target epitope) (HHD mice): extremely powerful in eliciting a cross reactive immune response | fold more immunogenic than the natural peptide (HHD mice): 123 fold

Molecule: VLYGPDDPTV (Anchor-modified analog) [411V10]
binding to HLA-A*0201 compared to wild-type counterpart (HLA-A*0201 [2]): marked increase of binding | stability of peptide-MHC complex compared to wild-type counterpart (HLA-A*0201 [3]): improved stability

B4: hTERT position 540, 9-mer, w.t. (ILAKFLHWL) (peptide)
peptide: ILAKFLHWL
notes: Fragment of hTERT (SwissProt O14746, printed); The range is worked out from the printed position and length
binding affinity (% of positive control) [5]: 30 % of the positive control

B5: hTERT position 865, 9-mer, w.t. (RLVDDFLLV) (peptide)
peptide: RLVDDFLLV
notes: as for B4
binding affinity (% of positive control) [5]: 30 % of the positive control

Next, values leading:

binding affinity to HLA-A*0201 compared to the corresponding wild type peptide (HLA-A*0201 [1]): increase in binding affinity
Molecule: 688.L2: hTERT position 688 10-mer L2 analog of RAWRTFVLRV, SEQ ID NO 20 (RLWRTFVLRV)

binding to HLA-A*0201 compared to wild-type counterpart (HLA-A*0201 [2]): marked increase of binding
Molecule: GLMIGVLVGV (Anchor-modified analog) [690L2]

binding result (HLA-A*0201 on T2 cells [4]): binds
Molecule: GLSAGATVGV (Anchor-modified analog of a CEA peptide) [CEA.682V10 (GLSAGATVGV)]

binding affinity (% of positive control) [5]: 30 % of the positive control
B1: hTERT position 544, 10-mer, w.t. (FLHWLMSVYV) (peptide)
peptide: FLHWLMSVYV
notes: as for B4

binding affinity (% of positive control) [5]: 30 % of the positive control
B2: hTERT position 30, 9-mer, w.t. (RLGPQGWRL) (peptide)
peptide: RLGPQGWRL
notes: as for B4

binding result (HLA-A*0201 on T2 cells [6]): binds
Molecule: IMIGVLVGV (Wild type CEA 9-mer) [CEA.691 (IMIGVLVGV)]

binding affinity (% of positive control) [5]: 30 % of the positive control
B3: hTERT position 986, 9-mer, w.t. (FLDLQVNSL) (peptide)
peptide: FLDLQVNSL
notes: as for B4

binding result [5]: binds
Molecule: ILAKFLHWV (type V9) [hTERT 540.V9 analog]

binding result (HLA-A*0201 on T2 cells [4]): binds
Molecule: GLNRTTVTTV (Anchor-modified analog of a CEA peptide) [CEA.307V10 (GLNRTTVTTV)]

binding result [5]: binds
Molecule: FLVDDFLLV (type F1) [hTERT 865.F1 analog]

binding result (HLA-A*0201 on T2 cells [4]): binds
B6: CEA.690L2 (GLMIGVLVGV) (peptide)
peptide: GLMIGVLVGV
notes: Anchor-modified analog of a CEA peptide; leucine at position 2

binding result (HLA-A*0201 on T2 cells [4]): binds
Molecule: VLYGPDTPIV (Anchor-modified analog of a CEA peptide) [CEA.589V10 (VLYGPDTPIV)]

binding affinity (% of positive control) [5]: 30 % of the positive control
B7: hTERT position 688, 10-mer, w.t. (RAWRTFVLRV) (peptide)
peptide: RAWRTFVLRV
notes: as for B4

binding affinity (% of positive control) [5]: 30 % of the positive control
B8: hTERT position 540, 10-mer, w.t. (ILAKFLHWLM) (peptide)
peptide: ILAKFLHWLM
notes: Fragment of hTERT (SwissProt O14746, printed)

binding affinity (% of positive control) [5]: 30 % of the positive control
B9: hTERT.934, 9-mer, w.t. (LLDTRTLEV) (peptide)
peptide: LLDTRTLEV
notes: as for B4
